According to patent publication US20090176264A1 (ORTHO CLINICAL DIAGNOSTICS, published 2009):

T1: P126(DE): recombinant PlGF wild type (human)
T1 construct: also called unaltered PlGF
T1 chain: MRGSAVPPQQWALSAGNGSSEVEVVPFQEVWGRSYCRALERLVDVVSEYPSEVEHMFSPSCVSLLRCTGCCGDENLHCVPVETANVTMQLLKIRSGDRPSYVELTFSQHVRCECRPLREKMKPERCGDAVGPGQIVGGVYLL

T2: P126(AA): PlGF mutant #1 (human)
T2 chain: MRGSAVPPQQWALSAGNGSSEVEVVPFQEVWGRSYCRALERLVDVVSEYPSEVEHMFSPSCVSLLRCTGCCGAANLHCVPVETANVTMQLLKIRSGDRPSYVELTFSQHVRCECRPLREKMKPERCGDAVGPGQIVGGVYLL

B1: P126(GAA): PlGF mutant #2 (ligand)
chain: MRGSAVPPQQWALSAGNGSSEVEVVPFQEVWGRSYCRALERLVDVVSEYPSEVEHMFSPSCVSLLRCTGCGGAANLHCVPVETANVTMQLLKIRSGDRPSYVELTFSQHVRCECRPLREKMKPERCGDAVGPGQIVGGVYLL
B2: Full length sFlt (soluble fms-like tyrosine kinase 1, sFlt-1), Scios Inc. Lot# 9225-89 (receptor)
chain: SKLKDPELSLKGTQHIMQAGQTLHLQCRGEAAHKWSLPEMVSKESERLSITKSACGRNGKQFCSTLTLNTAQANHTGFYSCKYLAVPTSKKKETESAIYIFISDTGRPFVEMYSEIPEIIHMTEGRELVIPCRVTSPNITVTLKKFPLDTLIPDGKRIIWDSRKGFIISNATYKEIGLLTCEATVNGHLYKTNYLTHRQTNTIIDVQISTPRPVKLLRGHTLVLNCTATTPLNTRVQMTWSYPDEKNKRASVRRRIDQSNSHANIFYSVLTIDKMQNKDKGLYTCRVRSGPSFKSVNTSVHIYDKAFITVKHRKQQVLETVAGKRSYRLSMKVKAFPSPEVVWLKDGLPATEKSARYLTRGYSLIIKDVTEEDAGNYTILLSIKQSNVFKNLTATLIVNVKPQIYEKAVSSFPDPALYPLGSRQILTCTAYGIPQPTIKWFWHPCNHNHSEARCDFCSNNEESFILDADSNMGNRIESITQRMAIIEGKNKMASTLVVADSRISGIYICIASNKVGTVGRNISFYITDVPNGFHVNLEKMPTEGEDLKLSCTVNKFLYRDVTWILLRTVNNRTMHYSISKQKMAITKEHSITLNLTIMNVSLQDSGTYACRARNVYTGEEILQKKEITIRGEHCNKKAVFSRISKFKSTRNDCTTQSNVKH
notes: also called recombinant sFlt

Experiments:
[1] = biological target: B2; assay: ELISA, sFlt coated 0.5 ug/mL, PlGF in solution, detected with Rat-4
Method: High-binding microtiter plate was coated with recombinant sFlt at 0.5 ug/mL and blocked with BSA/PBS
Standard ELISA procedure consists of 1st plate incubation with diluted P126(DE) or P126(AA) or P126(GAA) in casein/PBS at various concentration, 2nd plate incubation with monoclonal anti-PlGF Rat-4 solution at 0.1 ug/mL, 3rd plate incubation with HRP conjugated donkey anti-Rat IgG at 1:4K dilution in casein/PBS and 4th plate incubation with 100 uL OPD substrate development for 25 C/30 min. 1st, 2nd and 3rd plate incubation step is at 37 C/15-20 min/shake; 6 times plate washing between each step. 25 uL stop solution after 4th incubation and record OD at 492 nm.

[2] = biological target: T1, P126(DE): recombinant PlGF wild type; assay: ELISA, coated PlGF, sFlt at 200 ng/mL, detected with RD-1 + RD-2 anti-sFlt
P126(AA): PlGF mutant #1 [3] = biological target: T2, P126(AA): PlGF mutant #1; assay: as above
[4] = biological target: B1; assay: as above
[5] = biological target: T1, P126(DE): recombinant PlGF wild type; assay: ELISA, coated PlGF, sFlt at 600 ng/mL, detected with RD-1 + RD-2 anti-sFlt
P126(AA): PlGF mutant #1 [6] = biological target: T2, P126(AA): PlGF mutant #1; assay: as above
[7] = biological target: B1; assay: as above
[8] = biological target: T1, P126(DE): recombinant PlGF wild type; assay: ELISA, coated PlGF, sFlt at 1800 ng/mL, detected with RD-1 + RD-2 anti-sFlt
P126(AA): PlGF mutant #1 [9] = biological target: T2, P126(AA): PlGF mutant #1; assay: as above
[10] = biological target: B1; assay: as above
[11] = biological target: T1, P126(DE): recombinant PlGF wild type; assay: ELISA, coated PlGF, sFlt at 66.67 ng/mL, detected with RD-1 + RD-2 anti-sFlt
P126(AA): PlGF mutant #1 [12] = biological target: T2, P126(AA): PlGF mutant #1; assay: as above
[13] = biological target: B1; assay: as above

Row | Binder | binding result [1] | OD at 492 nm [2] | OD at 492 nm (P126(AA): PlGF mutant #1 [3]) | OD at 492 nm [4] | OD at 492 nm [5] | OD at 492 nm (P126(AA): PlGF mutant #1 [6]) | OD at 492 nm [7] | OD at 492 nm [8] | OD at 492 nm (P126(AA): PlGF mutant #1 [9]) | OD at 492 nm [10] | OD at 492 nm [11] | OD at 492 nm (P126(AA): PlGF mutant #1 [12]) | OD at 492 nm [13]
1 | B1 | no binding (tested: 1000 ng/mL) | – | – | – | – | – | – | – | – | – | – | – | –
2 | B2 | – | 0.833 OD | 0.115 OD | 0.095 OD | 1.83 OD | 0.182 OD | 0.101 OD | > 3 OD | 0.21 OD | 0.15 OD | 0.347 OD | 0.143 OD | 0.088 OD
